Experimental data as given in article PMC2755582 (Journal of molecular biology, 2009).
One block for each molecule: values may come before it.

Tests used:
[1] = target: Uroplakin Ia (Mus musculus) (UniProt Q9D132); settings: cited from earlier work
[2] = target: T1, uroplakin Ia (mouse, UniProt Q9D132 1-257, high mannose glycan at its single glycosylation site); assay: cryo-EM structure
T1 sequence (looked up): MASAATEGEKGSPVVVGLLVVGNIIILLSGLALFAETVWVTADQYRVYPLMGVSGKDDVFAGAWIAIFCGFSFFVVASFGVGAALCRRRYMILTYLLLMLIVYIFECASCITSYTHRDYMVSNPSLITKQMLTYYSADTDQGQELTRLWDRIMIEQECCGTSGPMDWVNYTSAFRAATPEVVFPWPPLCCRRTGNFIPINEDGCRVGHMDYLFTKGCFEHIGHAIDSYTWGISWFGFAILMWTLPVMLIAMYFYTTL

[3] = target: T2, uroplakin IIIa (mouse, UniProt Q9JKX8 19-287); assay: cryo-EM structure
T2 sequence (looked up): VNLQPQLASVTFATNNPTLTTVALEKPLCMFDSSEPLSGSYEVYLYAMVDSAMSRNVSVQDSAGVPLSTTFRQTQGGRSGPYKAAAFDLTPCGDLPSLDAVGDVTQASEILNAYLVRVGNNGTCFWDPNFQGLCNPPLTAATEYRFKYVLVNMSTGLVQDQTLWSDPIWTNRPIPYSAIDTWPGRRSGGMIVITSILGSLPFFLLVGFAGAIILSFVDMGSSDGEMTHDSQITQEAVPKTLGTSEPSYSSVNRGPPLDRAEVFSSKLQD

Molecule: FimH (from UniProt P08191)
Kd [1]: 100 nM

binding result [2]: binds
B1: uroplakin II (natural protein, mouse, UniProt P38575 85-184, looked up)
chain: ELVSVVDSGSGYTVTRLSAYQVTNLTPGTKYYISYRVQKGTSTESSPETPMSTLPRKNMESIGLGMARTGGMVVITVLLSVAMFLLVVGLIVALHWDARK

binding result [3]: binds
B2: uroplakin Ib (natural protein, mouse, UniProt Q9Z2C6 1-260, looked up)
chain: MAKDDSTVRCFQGLLIFGHVIVGMCGIALTAECIFFVSDQHSLYPLLEATNNDDIFGAAWIGMFVGICLFCLSVLAIVGIMKSNRKILLAYFIMMFIVYGFEVASCITAATQRDFFTTNLFLKQMLMRYQNNSPPTNDDEWKNNGVTKTWDRLMLQDHCCGVNGPSDWQKYTSAFRVENNDADYPWPRQCCVMDKLKEPLNLDACKLGVPGYYHSQGCYELISGPMDRHAWGVAWFGFAILCWTFWVLLGTMFYWSRIEY
